The source of these data is patent publication US20230357323A1 (University of Washington, published 2023).

As usually defined, the Kd is the free concentration of one partner at which half of the binding sites on the other are occupied at equilibrium, for simple one-to-one binding. Higher therefore signals lower affinity. By koff is commonly meant a measure of how fast the partners let go of each other. One may read the kon as the second-order rate constant of association. A lower kon goes with slow association.

The chains are these.
B16: human IL-23R (hIL-23R), custom construct with C-terminal avi and his tags, biotinylated (receptor, UniProt Q5VWK5 24-355, looked up, not shown: small tags and cut ends)
chain: GITNINCSGHIWVEPATIFKMGMNISIYCQAAIKNCQPRKLHFYKNGIKERFQITRINKTTARLWYKNFLEPHASMYCTAECPKHFQETLICGKDISSGYPPDIPDEVTCVIYEYSGNMTCTWNAGKLTYIDTKYVVHVKSLETEEEQQYLTSSYINISTDSLQGGKKYLVWVQAANALGMEESKQLQIHLDDIVIPSAAVISRAETINATVPKTIIYWDSQTTIEKVSCEMRYKATTNQTWNVKEFDTNFTYVQQSEFYLEPNIKYVFQVRCQETGKRYWQPWSSLFFHKTPETVPQVTSKAFQHDTWNSGLTVASISTGHLTSDNRGDIG
modifications: enzymatically biotinylated via the avi-tag
notes: immobilized on streptavidin tips in BLI, labeled target in FACS; also called human IL-23 receptor

Assay [1] has as its target B16. Description: yeast display FACS.
The target in assay [2] is IL-23R on IL-23 reporter cells (Promega IL-23 Bioassay). Description: cell-based or functional assay.
Assay [3] has as its target B16. Description: SPR. On the technique in general: In SPR one partner is held on a chip, and binding of the other changes the refractive index at the surface.
The target in assay [4] is B16. Description: BLI titration, biotinylated hIL-23R on streptavidin tips. The protocol:
(§1) Qualitative and quantitative assessment of binding affinity was performed using biolayer interferometry (ForteBio Octet™ […] and associated software for analysis). Enzymatically biotinylated target protein (30 nM) was immobilized on streptavidin-coated sensor tips, then sequentially dipped in wells with: buffer only (baseline), inhibitor in solution (association), and buffer only (dissociation). Kinetic constants were determined from the mathematical fit of a 1:1 binding model.

In assay [5] the target is B16. Description: biolayer interferometry titration, biotinylated hIL-23R immobilised on streptavidin tips, 1:1 fit. The protocol:
(§2) Variants were first screened for relative binding to hIL-23R with biolayer interferometry (BLI). hIL-23R was immobilized on the BLI sensor tips and binding to each variant in solution at a constant concentration (50 nM) was measured to qualitatively determine relative performance of the variants. For the best-performing variants, binding constants (KD, including kₒₙ, and koff) were quantitatively determined with BLI titration experiments in triplicate.
as §1
(In general: In BLI a coated tip is dipped into the sample, and binding shifts an interference pattern.)

Assay [6] addresses IL-23R on IL-23 reporter cells (Promega IL-23 Bioassay). Description: cell-based or functional assay. This is another data set of the same source.
The target of assay [7] is B16. The experiment in a line: yeast display FACS, SIF incubation then labeled hIL-23R, 5-7 rounds. The procedure:
Yeast libraries were first incubated in SIF at 30C, then washed thoroughly and incubated with labeled hIL-23R, and cells retaining the highest binding signal (top 1-5%) were collected by FACS. Two rounds of selection were performed for each library, and the SIF incubation time and/or concentration of proteases were increased from first to second round. […] Indeed in several libraries we saw a large population of Myc-negative, binding-positive cells. In parallel, we performed two rounds of selection for binding to hIL-23R only, without pre-incubation in SIF. […] Best mutations were included in combinatorial libraries, sorted as above for 5-7 rounds after which individual clones were sequenced. Variants present in the final sorts were expressed in E. coli and characterized (SEQ ID NOS: 70-74 and 153-164).
Yeast strain EBY100 was transformed with each library and vector by electroporation and grow in minimal media selective for the yeast strain (-ura) and the transforming plasmid (-trp).²⁷ Expression was induced with 2% galactose. Surface expression was detected with anti-Myc-FITC (Immunology Consultants Laboratory) conjugate, and binding to biotinylated IL-23R was detected with streptavidin-PE (Invitrogen).
SIF SSM and combinatorial libraries were prepared as follows: after 16-24 hours induction, yeast were spun down, washed with PBSF, resuspended in SIF (recipe described below) at an OD of 2.0, and incubated at 30° C. shaking for 30-90 minutes as noted. After SIF digest, cells were spun down and washed 4 times with 800 uL PBSF, manually aspirating the supernatant each time to ensure complete washing to remove proteases. SIF-treated cells were then treated with target protein as described above.

Assay [8] addresses B16. Description: biolayer interferometry titration, biotinylated hIL-23R immobilised on streptavidin tips. The procedure: as §2, §1
Assay [9] addresses T1, human IL-23 cytokine (p19/p40 heterodimer) (human, UniProt Q9NPF7 20-189; P29460 23-328).
T1 construct: recombinant human IL-23 (R&D 1290-IL) is named for the cell assay; also called native ligand
T1 sequence (looked up) 1: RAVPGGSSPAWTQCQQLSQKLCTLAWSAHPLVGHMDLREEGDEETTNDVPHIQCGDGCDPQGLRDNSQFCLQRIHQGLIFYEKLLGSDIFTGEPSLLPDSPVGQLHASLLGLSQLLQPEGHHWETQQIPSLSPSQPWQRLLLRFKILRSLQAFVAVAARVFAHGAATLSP
T1 sequence (looked up) 2: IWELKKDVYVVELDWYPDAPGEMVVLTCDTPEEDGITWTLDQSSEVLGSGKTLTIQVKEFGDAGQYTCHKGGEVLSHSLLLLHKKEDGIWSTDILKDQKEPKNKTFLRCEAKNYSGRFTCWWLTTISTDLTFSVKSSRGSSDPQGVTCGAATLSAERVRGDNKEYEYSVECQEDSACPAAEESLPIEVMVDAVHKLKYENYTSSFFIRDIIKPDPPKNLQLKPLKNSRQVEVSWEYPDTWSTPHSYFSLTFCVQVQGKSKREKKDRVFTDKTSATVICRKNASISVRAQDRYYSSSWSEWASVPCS
Description: method not stated here (FIG. 2E lists constants of the native ligand).

The target of assay [10] is T1, human IL-23 cytokine (p19/p40 …). Description: table of binding constants on hIL-23R; biolayer interferometry per paragraph 183 and paragraph 210, method not stated separately for this row. The protocol:
as §2, §1

No end group written: not given here. A value given as a limit tells only on which side of the number the result lay.

Sequence of IL-23R on IL-23 reporter cells (Promega IL-23 Bioassay) (Q5VWK5 whole entry): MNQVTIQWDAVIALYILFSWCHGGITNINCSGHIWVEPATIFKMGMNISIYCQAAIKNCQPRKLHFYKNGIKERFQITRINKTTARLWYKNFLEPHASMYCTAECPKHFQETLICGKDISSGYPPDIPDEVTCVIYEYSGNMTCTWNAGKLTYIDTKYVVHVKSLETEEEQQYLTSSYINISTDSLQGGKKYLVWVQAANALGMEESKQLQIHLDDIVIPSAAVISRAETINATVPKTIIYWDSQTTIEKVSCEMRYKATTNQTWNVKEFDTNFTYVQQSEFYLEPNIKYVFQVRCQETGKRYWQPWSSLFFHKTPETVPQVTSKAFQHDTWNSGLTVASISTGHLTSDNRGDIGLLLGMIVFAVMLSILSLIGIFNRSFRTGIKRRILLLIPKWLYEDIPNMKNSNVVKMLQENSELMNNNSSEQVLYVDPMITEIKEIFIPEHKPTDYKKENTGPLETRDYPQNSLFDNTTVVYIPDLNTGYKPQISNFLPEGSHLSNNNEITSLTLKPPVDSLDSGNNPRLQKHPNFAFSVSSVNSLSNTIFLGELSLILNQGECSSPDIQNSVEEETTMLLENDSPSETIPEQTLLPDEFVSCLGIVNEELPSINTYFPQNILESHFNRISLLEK

For the molecule ASPELKETCERLERLGMERWLILWCKQRAEEG (designed binder) [23R_mini_08], in assay [1], the binding result is “binds”.

Consider CRVCKNGFCVDARECWMAYYLLNQYN (designed binder, not fully specified (bridges); cysteine pairing not given here) [23R_mini_14_C4], for which, in assay [2], the “Fold better than competitor (IC50 against that of PTG compound C, IL-23 reporter cell assay) [table]” value (from here on “Fold better than competitor”) was 16 fold and the “IC50; inhibition of luciferase signal of IL-23 reporter cells stimulated with 8 ng/mL human IL-23 [table]” value (from here on “IC50; inhibition”) turned out to be 487 nM.

In the case of CKVKCGPVEFEATERWMCFYWYNKYC (designed binder, not fully specified (bridges); cysteine pairing not given here) [23R_mini_17_C11], in [2], the “Fold better than competitor” value was determined as 27 fold and the “IC50; inhibition” value came to 281 nM.

B1: rA11dslf02_M1P_R8Q_K35W (designed binder)
chain: PEPEKYLQELCKKYYEGKLSQQEAVEEIRKYARKWGLEAWKLVWYFMQCVKRDIHHHHHH
Take B1: in assay [3], the Kd was determined as 0.075 nM.

B2: 23R_B (designed binder)
chain: NLWQIFYQLSTILKRTGDPTAKKLLKALAEALKKGDEKALKELAKKATKYIRSHHHHHH
notes: purified from E. coli for BLI
On to B2, for which, in assay [4], the Kd stood at 70 nM. In addition, in [5], the dissociation constant Kd worked out at 50 nM, the koff came out at 0.015 s⁻¹ and the kon was 500000 M⁻¹ s⁻¹.

B3: B04dslf02IB (designed binder)
chain: PLWQVFYLLNTCIKRTGDPTCKKLAKALRECLKKGDLKACNELADKAVKYINSHHHHHH
notes: purified form with C-terminal tag; also called B0402IB; BO4dslf02IB
As to B3, the Kd in [3] was less than 0.001 nM. Besides, the “IC50 (read off the curve); IL-23-stimulated luciferase signal in IL-23 reporter cells [lower graph]” value in [6] is roughly 40 nM. For the same molecule, in [2], the “Fold better than competitor” value worked out at 484 fold and the “IC50; inhibition” value is 16 nM.

B4: B0402IC (designed binder)
chain: PLWQIFYLLNTCIKRTGDPTCKVLSKALRECLKKGDVKACSELASKAEKYINS
B4: the binding result in assay [7] is recorded as “binds”.

B5: B08 (designed binder)
chain: NLWQIFYVLNTIYKRTGDPTAKKLNKALREALKKHDEKATKELAKKATKYIRS
As to B5, binding in [8] was characterised by a dissociation constant (Kd) of 0.046 nM. In [5], this molecule showed a Kd of 0.046 nM, a koff of 4.6e-05 s⁻¹ and a kon of 990000 M⁻¹ s⁻¹.

B6: B0402IE (designed binder)
chain: NLWYIFYLLNTCIKRTCDPTCKVLAKALRECLKKGDLKACSELADKAVDYIRS
Consider B6, for which the binding result in assay [7] is listed as “binds”.

B7: B0402ID (designed binder)
chain: ELWQVFYLLNTCIKRTCDPTCKKLAKALRECLKKGDLKACKEDAYKALDYIRS
For B7, the binding result in [7] was “binds”.

B8: 23R_A (designed binder)
chain: MESEKYLRELVKKYYEGKLSVQEAVEEVRKYARKKGLEAWMLTWMFMELVKRYIHHHHHH
notes: purified from E. coli for BLI
For B8, the Kd in assay [4] was determined as 26 nM. In [5], this molecule had a koff of 0.014 s⁻¹ and an on-rate constant (kon) of 560000 M⁻¹ s⁻¹.

B9: B0402SB (designed binder)
chain: QLWQIFYLLNTCIKRTGDPTCKKLIKALRECLKKGDAKACDELAKKAVKYIMS
Take B9: the binding result in assay [7] is “binds”.

B10: B0402SE (designed binder)
chain: QLWQIFYLLNTCIKRTGDPTCKKLKKALRECLKKGDAKACKEAADKAVKYIMS
As for B10, the binding result in [7] is reported as “binds”.

B11: B0402SF (designed binder)
chain: ELWQIFYLLNTCIKRTGDPTCKKLIKALRECLKKGDAKACSELADKAMKYIMS
With B11, the binding result in assay [7] is on record as “binds”.

B12: B0402SC (designed binder)
chain: QLWQIFYLLNTCIKRTCDPTCKKLKKALRECLKKGDAKACDELADKAVKYIMS
As for B12, the binding result in assay [7] is “binds”.

B13: B0402SA (designed binder)
chain: ELWQIFYLLNTCIKRTGDPTCKKLIKALRECLKKGDMKACDELAKKAVKYIMS
For the molecule B13, in assay [7], the binding result is on record as “binds”.

B14: B0402SD (designed binder)
chain: PLWQIFYLLNTCIKRTGDPTCKKLIKALRECLKKGDPKACAELADKAMKYIMS
As to B14, in [7], the binding result is recorded as “binds”.

B15: B0402SG (designed binder)
chain: ELWQIFYLLNTCIKRTGDPTCKKLIKALRECLKKGDPKACAELAKKAMKYIMS
As for B15, the binding result in [7] is on record as “binds”.

Regarding B16, the Kd in assay [9] is 1.7 nM. In assay [10], this molecule returned a Kd of 1.69 nM, a koff of 0.0013 s⁻¹ and a kon of 780000 M⁻¹ s⁻¹.

B17: B0402IA (designed binder)
chain: PLWQVFYLLNTCIKRTGDPTCKKLAKALRECLKPGDVKACKEVADKAMDYIRS
Consider B17, for which the binding result in assay [7] is given as “binds”.
